Assay results: patent US20240239915A1 (Zymeworks, published 2024)
Read-outs that look alike come from different tables or passages of the source.

T1: Recombinant Human Fc gamma RIIA/CD32a (R167) Protein (R&D Systems), His-tagged (human, UniProt P12318 36-218)
T1 construct: also called human FcγRIIa; hFcγRIIa
T1 chain: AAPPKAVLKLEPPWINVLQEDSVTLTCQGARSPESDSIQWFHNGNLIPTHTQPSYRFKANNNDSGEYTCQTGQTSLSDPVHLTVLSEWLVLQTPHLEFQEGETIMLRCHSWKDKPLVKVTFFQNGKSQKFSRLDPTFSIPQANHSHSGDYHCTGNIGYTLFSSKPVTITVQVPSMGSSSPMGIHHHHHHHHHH

T2: Recombinant Human Fc gamma RIIA/CD32a (H167) Protein (R&D Systems), His-tagged (human, UniProt P12318 34-218)
T2 construct: also called human FcγRIIa (H167); hFcγRIIa (H167)
T2 sequence: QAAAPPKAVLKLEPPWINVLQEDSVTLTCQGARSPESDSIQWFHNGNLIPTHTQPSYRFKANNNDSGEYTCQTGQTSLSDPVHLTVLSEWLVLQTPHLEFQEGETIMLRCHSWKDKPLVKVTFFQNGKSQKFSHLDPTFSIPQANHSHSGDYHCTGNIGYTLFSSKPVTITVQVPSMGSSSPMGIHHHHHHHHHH

T3: Recombinant Human Fc gamma RIIB/C (CD32b/c) Protein (R&D Systems), His-tagged (human, UniProt P31994 46-217)
T3 construct: also called human FcγRIIb/c; hFcγRIIb/c
T3 sequence: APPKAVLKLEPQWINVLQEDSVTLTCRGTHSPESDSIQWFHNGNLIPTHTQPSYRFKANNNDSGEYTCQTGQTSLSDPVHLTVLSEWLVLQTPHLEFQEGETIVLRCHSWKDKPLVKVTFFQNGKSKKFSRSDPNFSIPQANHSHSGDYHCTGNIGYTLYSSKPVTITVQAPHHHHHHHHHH

T4: Recombinant Cynomolgus Fc gamma RIIA/CD32a Protein (R&D Systems), His-tagged (cynomolgus)
T4 construct: also called cynomolgus FcγRIIa; cFcγRIIa
T4 chain: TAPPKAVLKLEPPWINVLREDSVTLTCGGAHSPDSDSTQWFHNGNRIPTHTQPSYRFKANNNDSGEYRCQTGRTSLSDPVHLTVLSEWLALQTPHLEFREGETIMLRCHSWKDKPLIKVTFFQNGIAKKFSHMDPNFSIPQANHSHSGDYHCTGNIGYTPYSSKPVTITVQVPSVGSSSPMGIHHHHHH

T5: Recombinant Cynomolgus Fc gamma RIIB protein (R&D Systems), His-tagged (cynomolgus)
T5 construct: also called cynomolgus FcγRIIb; cFcγRIIb
T5 chain: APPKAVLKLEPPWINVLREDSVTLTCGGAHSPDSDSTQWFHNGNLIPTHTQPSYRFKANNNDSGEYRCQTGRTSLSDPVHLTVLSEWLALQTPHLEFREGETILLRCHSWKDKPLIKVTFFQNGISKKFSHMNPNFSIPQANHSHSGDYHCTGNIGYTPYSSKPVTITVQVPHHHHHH

T6: Recombinant Cynomolgus Fc gamma RIII/CD16 Protein (R&D Systems), His-tagged (cynomolgus, UniProt Q8SPW2 17-208)
T6 construct: also called cynomolgus FcγRIII; cFcγRIII
T6 chain: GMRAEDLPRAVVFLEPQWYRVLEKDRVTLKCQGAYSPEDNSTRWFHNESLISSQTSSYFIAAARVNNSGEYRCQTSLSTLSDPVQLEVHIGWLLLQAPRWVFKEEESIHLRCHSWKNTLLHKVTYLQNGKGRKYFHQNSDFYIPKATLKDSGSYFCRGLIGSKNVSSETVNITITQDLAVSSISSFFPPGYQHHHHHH

T7: Recombinant Cynomolgus Monkey Fc gamma RI/CD64 Protein, CF (R&D Systems), His-tagged (cynomolgus, UniProt P12314 11-288 (human entry))
T7 construct: also called cynomolgus FcγRI; cFcγRI
T7 chain: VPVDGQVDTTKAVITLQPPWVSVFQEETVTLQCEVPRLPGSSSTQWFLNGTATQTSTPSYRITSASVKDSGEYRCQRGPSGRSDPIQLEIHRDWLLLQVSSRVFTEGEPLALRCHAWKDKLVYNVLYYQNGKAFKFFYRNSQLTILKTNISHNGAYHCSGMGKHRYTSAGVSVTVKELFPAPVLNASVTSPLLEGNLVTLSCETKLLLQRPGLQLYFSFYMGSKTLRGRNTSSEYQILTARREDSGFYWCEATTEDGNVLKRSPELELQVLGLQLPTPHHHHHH

T8: Recombinant Human Fc gamma RIIIB/CD16b Protein (R&D Systems), His-tagged (human, UniProt O75015 20-208)
T8 construct: also called human FcγRIIIb; hFcγRIIIb
T8 chain: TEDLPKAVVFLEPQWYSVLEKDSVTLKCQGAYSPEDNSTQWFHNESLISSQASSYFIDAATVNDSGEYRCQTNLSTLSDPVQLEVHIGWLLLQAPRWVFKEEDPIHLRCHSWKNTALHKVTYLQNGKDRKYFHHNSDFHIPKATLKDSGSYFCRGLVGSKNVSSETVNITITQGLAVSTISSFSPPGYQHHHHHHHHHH


Key:
[1] = biological target: T1, Recombinant Human Fc gamma RIIA/CD32a …; experiment: SPR (Biacore T200); receptor immobilized directly on CM5 chip, antibody as analyte at 4.7 µM
[2] = biological target: T2, Recombinant Human Fc gamma RIIA/CD32a …; experiment: as above
[3] = biological target: T3, Recombinant Human Fc gamma RIIB/C …; experiment: as above
[4] = biological target: T9, Recombinant Human Fc gamma RIIIA/CD16a protein (R&D Systems), His-tagged (human, UniProt P08637 17-208); experiment: as above
T9 construct: also called human FcγRIIIa; hFcγRIIIa

[5] = biological target: T4, Recombinant Cynomolgus Fc gamma …; experiment: as above
[6] = biological target: T5, Recombinant Cynomolgus Fc gamma RIIB …; experiment: as above
[7] = biological target: T6, Recombinant Cynomolgus Fc gamma …; experiment: as above
[8] = biological target: T10, human FcRn (human neonatal Fc receptor large subunit p51 and beta2-microglobulin), biotinylated (human, UniProt P55899 24-297; P61769 21-119, biotinylated (site not stated)); experiment: BLI (Octet RED384), biotinylated FcRn on streptavidin biosensor, binding and dissociation at pH 6.0
[9] = biological target: T7, Recombinant Cynomolgus Monkey Fc gamma …; experiment: SPR (Biacore T200); His-tagged receptor captured on anti-His antibody chip, antibody as analyte at 4.7 µM
[10] = biological target: T10, human FcRn (human neonatal Fc receptor …); experiment: BLI (Octet RED384), biotinylated FcRn on streptavidin biosensor, binding at pH 6.0, dissociation at pH 7.4
[11] = biological target: T7, Recombinant Cynomolgus Monkey Fc gamma …; experiment: SPR (Biacore T200), RU at 4.7 µM antibody
[12] = biological target: T2, Recombinant Human Fc gamma RIIA/CD32a …; experiment: SPR (Biacore T200); receptor immobilized directly on CM5 chip, antibody as analyte at 4.7 µM; remark: listed apart in the source
[13] = biological target: T3, Recombinant Human Fc gamma RIIB/C …; experiment: as above; remark: listed apart in the source
[14] = biological target: T9, Recombinant Human Fc gamma RIIIA/CD16a …; experiment: as above; remark: listed apart in the source
[15] = biological target: T11, Recombinant Human Fc gamma RIIIA/CD16a (V176F) Protein (R&D Systems), His-tagged (human, UniProt P08637 17-208); experiment: as above
T11 construct: no further substitution applied; also called human FcγRIIIa (V176F); hFcγRIIIa (V176F)

[16] = biological target: T8, Recombinant Human Fc gamma RIIIB/CD16b …; experiment: as above
[17] = biological target: T4, Recombinant Cynomolgus Fc gamma …; experiment: as above
[18] = biological target: T5, Recombinant Cynomolgus Fc gamma RIIB …; experiment: as above
[19] = biological target: T6, Recombinant Cynomolgus Fc gamma …; experiment: as above

T9 sequence (P08637 other isoform, or with tags, fused parts or gaps): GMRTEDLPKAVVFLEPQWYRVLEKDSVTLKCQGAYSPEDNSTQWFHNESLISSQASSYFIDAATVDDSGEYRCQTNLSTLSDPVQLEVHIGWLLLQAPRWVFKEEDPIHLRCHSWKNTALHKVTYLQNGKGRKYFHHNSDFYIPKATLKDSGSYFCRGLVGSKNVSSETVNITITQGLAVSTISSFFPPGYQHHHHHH
T10 sequence (P55899 24-297 limits assumed, chain 1 of 2): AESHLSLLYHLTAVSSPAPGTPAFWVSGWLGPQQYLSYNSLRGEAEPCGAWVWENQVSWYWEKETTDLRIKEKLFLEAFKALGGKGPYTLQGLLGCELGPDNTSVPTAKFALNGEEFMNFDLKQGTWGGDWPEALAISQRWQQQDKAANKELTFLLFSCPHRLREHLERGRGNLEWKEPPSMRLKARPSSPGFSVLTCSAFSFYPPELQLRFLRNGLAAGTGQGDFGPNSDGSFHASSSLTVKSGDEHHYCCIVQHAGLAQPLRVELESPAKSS
T10 sequence (P61769 21-119 limits assumed, chain 2 of 2): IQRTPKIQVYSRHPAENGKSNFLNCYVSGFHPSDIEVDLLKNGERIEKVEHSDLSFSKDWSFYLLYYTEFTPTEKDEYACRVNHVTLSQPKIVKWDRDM
T11 sequence (P08637 other isoform, or with tags, fused parts or gaps V176F V176F): as the sequence (P08637 other isoform, or with tags, fused parts or gaps) above, with V160F counted along it

Binder | binding response (RU) [1] [RU] | binding response (RU) [2] [RU] | binding response (RU) [3] [RU] | binding response (RU) [4] [RU] | binding response (RU) [5] [RU] | binding response (RU) [6] [RU] | binding response (RU) [7] [RU] | Kd [8] [nM] | binding response (RU) [9] [RU] | koff [10] [s⁻¹] | RU value relative to the LALA-DA variant [11] [fold] | binding response (RU) [12] [RU] | binding response (RU) [13] [RU] | binding response (RU) [14] [RU] | binding response (RU) [15] [RU] | binding response (RU) [16] [RU] | binding response (RU) [17] [RU] | binding response (RU) [18] [RU] | binding response (RU) [19] [RU]
L234A/L235A (LALA) variant of IgG1 WT of the anti-EGFR antibody panitumumab (antibody, Mutations in both CH2 domains) heavy: not shown light: not shown | 330 | 160 | 78 | 420 | 94 | 270 | 540 | 5.5 | 3200 | 2.8 | – | – | – | – | – | – | – | – | –
L234A/L235A/D265Q (LALA-DQ) variant of IgG1 WT of the anti-EGFR antibody panitumumab (antibody, Mutations in both CH2 domains; positions are EU numbers) heavy: QVQLQESGPGLVKPSETLSLTCTVSGGSVSSGDYYWTWIRQSPGKGLEWIGHIYYSGNTNYNPSLKSRLTISIDTSKTQFSLKLSSVTAADTAIYYCVRDRVTGAFDIWGQGTMVTVSSASTKGPSVFPLAPSSKSTSGGTAALGCLVKDYFPEPVTVSWNSGALTSGVHTFPAVLQSSGLYSLSSVVTVPSSSLGTQTYICNVNHKPSNTKVDKRVEPKSCDKTHTCPPCPAPEAAGGPSVFLFPPKPKDTLMISRTPEVTCVVVQVSHEDPEVKFNWYVDGVEVHNAKTKPREEQYNSTYRVVSVLTVLHQDWLNGKEYKCKVSNKALPAPIEKTISKAKGQPREPQVYTLPPSREEMTKNQVSLTCLVKGFYPSDIAVEWESNGQPENNYKTTPPVLDSDGSFFLYSKLTVDKSRWQQGNVFSCSVMHEALHNHYTQKSLSLSPGK light: not shown | – | – | – | – | – | – | – | – | – | – | ≥ 1.4 | 34 | 15 | -2.1 | -3.5 | -0.6 | 22 | 89 | 3.5
L234A/L235A/D265T (LALA-DT) variant of IgG1 WT of the anti-EGFR antibody panitumumab (antibody, Mutations in both CH2 domains; positions are EU numbers) heavy: QVQLQESGPGLVKPSETLSLTCTVSGGSVSSGDYYWTWIRQSPGKGLEWIGHIYYSGNTNYNPSLKSRLTISIDTSKTQFSLKLSSVTAADTAIYYCVRDRVTGAFDIWGQGTMVTVSSASTKGPSVFPLAPSSKSTSGGTAALGCLVKDYFPEPVTVSWNSGALTSGVHTFPAVLQSSGLYSLSSVVTVPSSSLGTQTYICNVNHKPSNTKVDKRVEPKSCDKTHTCPPCPAPEAAGGPSVFLFPPKPKDTLMISRTPEVTCVVVTVSHEDPEVKFNWYVDGVEVHNAKTKPREEQYNSTYRVVSVLTVLHQDWLNGKEYKCKVSNKALPAPIEKTISKAKGQPREPQVYTLPPSREEMTKNQVSLTCLVKGFYPSDIAVEWESNGQPENNYKTTPPVLDSDGSFFLYSKLTVDKSRWQQGNVFSCSVMHEALHNHYTQKSLSLSPGK light: not shown | – | – | – | – | – | – | – | – | – | – | ≥ 1.4 | 37 | 15 | -1.4 | -3.6 | -0.2 | 24 | 93 | 4.8
